One protein from paper PMC7521653, “Structural analysis of the LDL receptor–interacting FERM domain in the E3 ubiquitin ligase IDOL reveals an obscured substrate-binding site” (The Journal of Biological Chemistry, 2020) can be followed below.

This data set concerns the molecule itself. In words: crystal structure; F3ab (183-283), space group P2(1)2(1)2(1), three copies in the asymmetric unit; crystals from 100 mM Hepes, pH 7.0, 10% (w/v) PEG 6000.

B1: IDOL F3ab subdomain (residues 183-283) (domain or fragment, human, UniProt Q8WY64 183-283, looked up)
chain: ENYGIEWHSVRDSEGQKLLIGVGPEGISICKDDFSPINRIAYPVVQMATQSGKNVYLTVTKESGNSIVLLFKMISTRAASGLYRAITETHAFYRCDTVTSA
notes: IDOL (MYLIP), human, F3ab subdomain, residues 183-283; E. coli codon-optimised gene in pET28(a); The construct holds an incomplete F3c' (279-283 of 279-300); also called FERM F3ab; third lobe of the FERM domain; not shown: His6, N-terminal, cleaved
For B1, the binding result is “binds”.
